Where two headings read alike, the source gives them in different places.
How the values were obtained:
[1] = molecular target: Trichinella spiralis lysate
[2] = molecular target: Trichinella spiralis lysate; remark: listed apart in the source
[3] = molecular target: Trichinella spiralis E/S antigen

Binder | detection limit [1] [µg/mL] | detection limit [2] [ng/mL] | detection limit [3] [ng/mL]
Anti-[TRISP][18H1] (antibody, V domains shown) VH: QVQLKESGPGLVQPSQTLSLTCTVSGLSLTSNSVGWIRQPPGKGLEWMGIIWSNGGTDYNSAIKSRLSISRDTSKSQVFLKMHSLQTEDTAMYFCARGPYYGSYRLGYFDYWGQGVMVTVSS VL: DVVMTQSPSSLAVSAGETVTLNCQSSQSLLYSGTQNNYLAWYQQKPGQSPKLLISWASTRQSGVPLRFIGSGSGTDFTLTITSVQAEDLAIYYCQQFYDTPLTFGSGTKLEIK | 10 | 1 | –
Anti-[TRISP][C9] (antibody, V domains shown) VH: AVTLDESGGGLQTPGGALSLVCKASGFSISSYSMQWVRQAPGKGLEWVAGIYYDGNTWYAPAVKGRATISRDNGQSTVRLRLNNLRAEDTATYFCAKYAGGYSIDAWGHGTEVIVSS VL: ALTQPSSVSANPGETVKITCSGSSGSYGWYQQKSPGSGPVTVIYYNDKRPSDIPSRFSGSASGSTATLTITGVQAEDEAVYFCGGYDSSTYVGIFGAGTTLTVL | – | – | 6
